# B1: DLC1 WT (peptide)
# chain: NDDSADYQHFLQDCVDGLFKEVKE
# B2: DLC1 WT (peptide)
# chain: AEVVKIRDSFSNQNTETKDTKSR
# B3: FBXO33 WT (peptide)
# chain: RLRGLLRVLRGRPGAGSRRRGRMA
# B4: RBBP5 WT (peptide)
# chain: TGTSNTTAIKSIEFARKGSCFLIN
# B5: LCOR WT (peptide)
# chain: PCAGSTSLSHSPGCSSTQGNGRPG
# B6: LCOR WT (peptide)
# chain: YKVKERLGTLKNPPKKKMKLMSG
# B7: PTPLAD1 WT (peptide)
# chain: YSFYMLTCIDMDWKVLTWLRYTLW
# B8: PTPLAD1 WT (peptide)
# chain: YINFRHLYKQRRRRYGQKKKKIH
# B9: CROP WT (peptide)
# chain: VFGRGDNISDVSKFLEDDKWMEE
# B10: ZNF449 WT (peptide)
# chain: FQEYDTDCEVFRQRFRQFQYREAA
# B11: ZNF449 WT (peptide)
# chain: HKKKSPGEKPHRCPQCGKCFARKS
# B12: ZNF449 WT (peptide)
# chain: QLTGHQRIHSGEEPHKCPECGKRF
# B13: ZNF449 WT (peptide)
# chain: RIHSGEEPHKCPECGKRFLRSSDL
# B14: ZNF449 WT (peptide)
# chain: EPHKCPECGKRFLRSSDLYRHQRL
# B15: ZNF449 WT (peptide)
# chain: YRHQRLHTGERPYECTVCKKRFTR
# B16: ZNF449 WT (peptide)
# chain: HTGERPYECTVCKKRFTRRSHLIG
# B17: ZNF449 WT (peptide)
# chain: TLHQRTHTEERPFKCNYCGKSFRQ
# B18: ZNF449 WT (peptide)
# chain: CTHCSKSFRQRAGLIMHQVTHFRG
# B19: ZER1 WT (peptide)
# chain: FDGPEAWGVCEPQREEVEERMWAA
# B20: ZER1 WT (peptide)
# chain: PILRLLPQGISPVSQHWATWALYN
# B21: ZER1 WT (peptide)
# chain: KEMARKVIEHCSNFKEENMDTSR
# B22: RIT1 WT (peptide)
# chain: FHALVREIRRKEKEAVLAMEKKSK
# B23: KCNAB2 WT (peptide)
# chain: YVDVVFANRPDPNTPMEETVRAMT
# B24: KCNAB2 WT (peptide)
# chain: IPPYSRASLKGYQWLKDKILSEEG
# B25: KCNAB2 WT (peptide)
# chain: SSIIHEIDSILGNKPYSKKDYRS
# B26: KCNA4 WT (peptide)
# chain: YQSGGRLKRPVNVPFDIFTEEVKF
# B27: KCNA4 WT (peptide)
# chain: YQLGEEALLKFREDEGFVREEEDR
# B28: C22orf31 WT (peptide)
# chain: YSLELGKAIKQKLWEALCSQGAIS
# B29: FAM98B WT (peptide)
# chain: QLDKNSEVYQEVQAMFDTLGIPKS
# B30: FAM189A2 WT (peptide)
# chain: NLAGFILGCQGAQFVSSVPRCDLV
# B31: FAM189A2 WT (peptide)
# chain: PRCDLVDLGEGKICFCCEEFQPAK
# B32: FAM189A2 WT (peptide)
# chain: CALNALTTTVCLVAAALRYLQIFA
# B33: FAM189A2 WT (peptide)
# chain: VAAALRYLQIFATRRSCIDESQIS
# B34: FAM189A2 WT (peptide)
# chain: GSEAAVIPLDLGCTQVTQDGDIPN
# B35: HNF4A WT (peptide)
# chain: RFSRQCVVDKDKRNQCRYCRLKKC
# B36: KCNA1 WT (peptide)
# chain: LKASMRELGLLIFFLFIGVILFSS
# B37: PCDHGA10 WT (peptide)
# chain: FGIEIEVTDINDNAPKFQAENLDV
# B38: PCDHGA10 WT (peptide)
# chain: FHELQMQVTASDSGDPPLSSNVSL
# B39: VENTX WT (peptide)
# chain: VFQHHQYLSPLERKRLAREMQLSE
# B40: ATL3 WT (peptide)
# chain: EKALASILLQDHIRDLDVVVVSVA
# B41: ATL3 WT (peptide)
# chain: YGLQGGMAFLDKRLQVKEHQHEEI
# B42: ATL3 WT (peptide)
# chain: HFKKTKKMGGKDFSFRYQQELEEE
# B43: ATL3 WT (peptide)
# chain: FSFRYQQELEEEIKELYENFCKHN
# B44: ATL3 WT (peptide)
# chain: QELEEEIKELYENFCKHNGSKNVF
# B45: ESRRA WT (peptide)
# chain: LGVAQRSLPLQDELAFAEDLVLDE
# B46: ESRRA WT (peptide)
# chain: SLPLQDELAFAEDLVLDEEGARAA
# B47: VDR WT (peptide)
# chain: VTLELSQLSMLPHLADLVSYSIQK
# B48: VDR WT (peptide)
# chain: LIKFQVGLKKLNLHEEEHVLLMAI
# B49: ESRRG WT (peptide)
# chain: YSCPATNECEITKRRRKSCQACRF
# B50: ACBD3 WT (peptide)
# chain: YVASHKIEKEEQEKKRKEEEERRR
# B51: MLL5 WT (peptide)
# chain: HDDGYMICCDKCSVWQHIDCMGID
# B52: MLL5 WT (peptide)
# chain: DCMGIDRQHIPDTYLCERCQPRNL
# B53: MLL5 WT (peptide)
# chain: TYLCERCQPRNLDKERAVLLQRRK
# Assay: protein stability index of a GFP-peptide fusion (GPS, HEK-293T) (PSI 1-6); higher = more stable
# 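Further: lentivirally expressed fusions sorted by FACS into six bins by GFP to DsRed ratio, PSI derived from sequencing read proportions per bin multiplied by bin number.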
protein,measurement,setting,value
B1,protein stability index,"parent: IOH28890_220, c terminus: a fixed tail appended",2.66
B2,protein stability index,"parent: IOH28890_253, c terminus: native",2.4
B3,protein stability index,"parent: IOH28939_7, c terminus: a fixed tail appended",2.16
B4,protein stability index,"parent: IOH28957_33, c terminus: a fixed tail appended",2.08
B5,protein stability index,"parent: IOH28989_16, c terminus: a fixed tail appended",3.04
B6,protein stability index,"parent: IOH28989_68, c terminus: native",1.99
B7,protein stability index,"parent: IOH29075_44, c terminus: a fixed tail appended",2.31
B8,protein stability index,"parent: IOH29075_58, c terminus: native",2.11
B9,protein stability index,"parent: IOH29119_14, c terminus: native",1.95
B10,protein stability index,"parent: IOH29221_4, c terminus: a fixed tail appended",2.58
B11,protein stability index,"parent: IOH29221_53, c terminus: a fixed tail appended",3.46
B12,protein stability index,"parent: IOH29221_57, c terminus: a fixed tail appended",4.05
B13,protein stability index,"parent: IOH29221_58, c terminus: a fixed tail appended",3.27
B14,protein stability index,"parent: IOH29221_59, c terminus: a fixed tail appended",3.96
B15,protein stability index,"parent: IOH29221_62, c terminus: a fixed tail appended",2.36
B16,protein stability index,"parent: IOH29221_63, c terminus: a fixed tail appended",2.07
B17,protein stability index,"parent: IOH29221_76, c terminus: a fixed tail appended",2.24
B18,protein stability index,"parent: IOH29221_83, c terminus: a fixed tail appended",2
B19,protein stability index,"parent: IOH29391_108, c terminus: a fixed tail appended",2.7
B20,protein stability index,"parent: IOH29391_115, c terminus: a fixed tail appended",3.03
B21,protein stability index,"parent: IOH29391_126, c terminus: native",3.58
B22,protein stability index,"parent: IOH29584_30, c terminus: a fixed tail appended",1.93
B23,protein stability index,"parent: IOH29625_26, c terminus: a fixed tail appended",1.96
B24,protein stability index,"parent: IOH29625_44, c terminus: a fixed tail appended",1.84
B25,protein stability index,"parent: IOH29625_62, c terminus: native",2.88
B26,protein stability index,"parent: IOH29649_40, c terminus: a fixed tail appended",1.82
B27,protein stability index,"parent: IOH29649_44, c terminus: a fixed tail appended",4.53
B28,protein stability index,"parent: IOH35430_40, c terminus: a fixed tail appended",2.63
B29,protein stability index,"parent: IOH35542_24, c terminus: a fixed tail appended",3.16
B30,protein stability index,"parent: IOH35782_4, c terminus: a fixed tail appended",2.97
B31,protein stability index,"parent: IOH35782_7, c terminus: a fixed tail appended",2.92
B32,protein stability index,"parent: IOH35782_16, c terminus: a fixed tail appended",2.77
B33,protein stability index,"parent: IOH35782_18, c terminus: a fixed tail appended",1.98
B34,protein stability index,"parent: IOH35782_37, c terminus: a fixed tail appended",5.39
B35,protein stability index,"parent: IOH35808_17, c terminus: a fixed tail appended",2.46
B36,protein stability index,"parent: IOH35854_54, c terminus: a fixed tail appended",2.1
B37,protein stability index,"parent: IOH36207_21, c terminus: a fixed tail appended",2.77
B38,protein stability index,"parent: IOH36207_89, c terminus: a fixed tail appended",2.17
B39,protein stability index,"parent: IOH36691_19, c terminus: a fixed tail appended",2.52
B40,protein stability index,"parent: IOH37933_8, c terminus: a fixed tail appended",2.89
B41,protein stability index,"parent: IOH37933_38, c terminus: a fixed tail appended",2.62
B42,protein stability index,"parent: IOH37933_67, c terminus: a fixed tail appended",2.21
B43,protein stability index,"parent: IOH37933_69, c terminus: a fixed tail appended",2.5
B44,protein stability index,"parent: IOH37933_70, c terminus: a fixed tail appended",2.68
B45,protein stability index,"parent: IOH39702_46, c terminus: a fixed tail appended",2.84
B46,protein stability index,"parent: IOH39702_47, c terminus: a fixed tail appended",3.08
B47,protein stability index,"parent: IOH39811_37, c terminus: a fixed tail appended",2.42
B48,protein stability index,"parent: IOH39811_53, c terminus: a fixed tail appended",2.28
B49,protein stability index,"parent: IOH39815_24, c terminus: a fixed tail appended",3.16
B50,protein stability index,"parent: IOH39821_30, c terminus: a fixed tail appended",2.71
B51,protein stability index,"parent: IOH39874_22, c terminus: a fixed tail appended",2.33
B52,protein stability index,"parent: IOH39874_25, c terminus: a fixed tail appended",2.99
B53,protein stability index,"parent: IOH39874_27, c terminus: a fixed tail appended",2.15
